We go through one molecule from PMC9363494, “C-terminal truncation modulates α-Synuclein’s cytotoxicity and aggregation by promoting the interactions with membrane and chaperone” (Communications Biology, 2022).

This assay concerns the target T1, C-terminally truncated α-synuclein (residues 1-99) (UniProt P37840 1-99).
T1 construct: α-synuclein with a deletion of the C-terminus, amino acids 1-99; Uniformly 15N-enriched for the NMR experiments; also called CT-α-syn; source: E. coli BL21 (DE3), purified (SP cation exchange, Superdex 75)
The experiment in a line: NMR titration; 1H-15N HSQC of 0.3 mM 15N-enriched FL- or CT-α-syn titrated with PDI (mole ratios 10:1 to 1:1, 0-300 μM PDI); 20 mM HEPES, 100 mM NaCl, 5 mM TCEP, pH 7.0, 10% D2O, 15 °C; KD from fits of the average CSPs of residues in segment 1 and in segment 2. The settings on record: both partners purified.

B1: protein disulfide isomerase (enzyme)
chain: not shown
notes: human protein disulfide isomerase (PDI); the human PDI gene cloned into pET-28a; The vector has a TEV protease cleavage site after the His6-tag; no cleavage step is described; also called PDI; source: E. coli BL21 (DE3), purified (HisTrap, Resource Q, Superdex 200)
As to B1, the “KD of segment 1” value was roughly 40 µM and the “KD of segment 2” value was roughly 400 µM.
